Measurements: the supplement of paper PMC10065799, “High-throughput profiling of sequence recognition by tyrosine kinases and SH2 domains using bacterial peptide display” (eLife, 2023)

Key:
Grb2 SH2 = Grb2 SH2 (UniProt P62993); experiment: SH2 binding enrichment of the phosphorylated peptide, bacterial display (enrichment ratio); higher = better substrate or ligand; peptides without Tyr show the background
c-Src SH2 = experiment: as above
SHP2-C SH2 = experiment: as above
EPHB1 = EPHB1 (UniProt P54762); experiment: phosphorylation enrichment, bacterial display (enrichment ratio); higher = better substrate or ligand; peptides without Tyr show the background
Hck = Hck (UniProt P08631); experiment: as above
Jak2 = Jak2 (UniProt O60674); experiment: as above
FGFR3 = FGFR3 (UniProt P22607); experiment: as above
Fer (mouse) = experiment: as above
EPHB2 = EPHB2 (UniProt P29323); experiment: as above
Fyn = Fyn (UniProt P06241); experiment: as above
Fes = Fes (UniProt P07332); experiment: as above
c-Abl (mouse) = experiment: as above
MERTK = MERTK (UniProt Q12866); experiment: as above
c-Src = experiment: as above
FGFR1 = FGFR1 (UniProt P11362); experiment: as above
AncSZ = experiment: as above
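Wherever SH2 binding enrichment of the phosphorylated peptide, bacterial display is given: peptide library displayed on the E. coli surface as eCPX fusions, selected cells deep-sequenced, score is each peptide's frequency after selection divided by its frequency in the input.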
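Wherever phosphorylation enrichment, bacterial display is given: 11-residue human phosphosite peptides and single-mutation variants displayed on the E. coli surface, counted by deep sequencing, each peptide's frequency after selection divided by its frequency in the unselected input library; frequency after pTyr selection over input frequency; kinase dosed for 20-30% of maximal phosphorylation in three min.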

Sequence of MERTK (Q12866 whole entry, looked up): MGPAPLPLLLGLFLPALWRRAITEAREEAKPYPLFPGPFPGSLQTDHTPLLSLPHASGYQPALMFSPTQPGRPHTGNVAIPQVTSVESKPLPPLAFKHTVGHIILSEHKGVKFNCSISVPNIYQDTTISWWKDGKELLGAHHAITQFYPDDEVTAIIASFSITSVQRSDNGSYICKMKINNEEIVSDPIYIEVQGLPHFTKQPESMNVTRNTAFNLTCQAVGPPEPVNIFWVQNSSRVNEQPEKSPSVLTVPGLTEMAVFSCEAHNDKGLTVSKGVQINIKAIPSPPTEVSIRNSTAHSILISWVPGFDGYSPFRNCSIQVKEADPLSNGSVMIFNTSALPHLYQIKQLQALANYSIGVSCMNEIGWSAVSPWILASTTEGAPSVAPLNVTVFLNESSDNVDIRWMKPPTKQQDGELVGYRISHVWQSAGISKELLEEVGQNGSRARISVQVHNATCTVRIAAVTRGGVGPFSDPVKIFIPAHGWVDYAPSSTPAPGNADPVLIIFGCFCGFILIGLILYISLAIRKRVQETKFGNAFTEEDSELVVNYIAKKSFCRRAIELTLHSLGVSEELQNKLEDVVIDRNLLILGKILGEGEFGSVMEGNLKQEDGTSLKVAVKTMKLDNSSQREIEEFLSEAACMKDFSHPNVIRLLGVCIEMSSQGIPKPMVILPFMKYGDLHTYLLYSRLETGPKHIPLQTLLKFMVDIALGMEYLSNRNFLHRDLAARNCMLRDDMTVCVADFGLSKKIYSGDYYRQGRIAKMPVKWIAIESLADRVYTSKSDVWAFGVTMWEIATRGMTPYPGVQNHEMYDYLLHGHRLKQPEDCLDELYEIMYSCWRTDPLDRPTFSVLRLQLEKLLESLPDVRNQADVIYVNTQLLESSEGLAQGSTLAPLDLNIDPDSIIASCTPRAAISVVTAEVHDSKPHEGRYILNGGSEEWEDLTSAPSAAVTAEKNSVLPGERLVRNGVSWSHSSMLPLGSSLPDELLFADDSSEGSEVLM
Sequence of FGFR3 (P22607 whole entry, looked up): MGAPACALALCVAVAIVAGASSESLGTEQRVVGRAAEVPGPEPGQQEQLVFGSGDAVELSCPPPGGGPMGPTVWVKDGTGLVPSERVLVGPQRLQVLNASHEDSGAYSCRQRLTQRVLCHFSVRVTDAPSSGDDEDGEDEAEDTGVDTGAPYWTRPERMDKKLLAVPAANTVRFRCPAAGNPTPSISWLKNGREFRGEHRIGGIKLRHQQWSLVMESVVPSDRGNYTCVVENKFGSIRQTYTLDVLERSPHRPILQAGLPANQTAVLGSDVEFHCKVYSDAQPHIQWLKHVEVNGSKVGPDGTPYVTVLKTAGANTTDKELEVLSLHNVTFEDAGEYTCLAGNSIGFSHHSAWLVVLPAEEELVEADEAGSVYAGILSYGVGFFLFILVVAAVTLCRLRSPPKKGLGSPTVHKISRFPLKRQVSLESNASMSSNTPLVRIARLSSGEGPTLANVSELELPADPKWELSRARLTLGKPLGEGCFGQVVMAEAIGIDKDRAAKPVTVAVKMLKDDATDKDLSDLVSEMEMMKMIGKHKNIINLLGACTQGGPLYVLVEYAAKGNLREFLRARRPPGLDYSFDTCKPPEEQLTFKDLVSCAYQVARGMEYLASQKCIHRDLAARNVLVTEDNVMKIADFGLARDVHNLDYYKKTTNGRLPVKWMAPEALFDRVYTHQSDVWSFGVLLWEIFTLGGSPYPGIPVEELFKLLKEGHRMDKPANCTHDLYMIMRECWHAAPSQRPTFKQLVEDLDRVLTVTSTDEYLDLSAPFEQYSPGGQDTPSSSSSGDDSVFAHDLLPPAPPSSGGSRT
Sequence of Grb2 SH2 (P62993 whole entry, looked up): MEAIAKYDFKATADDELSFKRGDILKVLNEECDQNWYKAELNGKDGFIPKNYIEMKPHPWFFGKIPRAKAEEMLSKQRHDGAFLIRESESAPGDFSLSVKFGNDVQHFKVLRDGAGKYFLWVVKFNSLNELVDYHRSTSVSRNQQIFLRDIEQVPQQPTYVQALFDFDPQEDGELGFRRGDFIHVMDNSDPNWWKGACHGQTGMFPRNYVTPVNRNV
Sequence of Fes (P07332 whole entry, looked up): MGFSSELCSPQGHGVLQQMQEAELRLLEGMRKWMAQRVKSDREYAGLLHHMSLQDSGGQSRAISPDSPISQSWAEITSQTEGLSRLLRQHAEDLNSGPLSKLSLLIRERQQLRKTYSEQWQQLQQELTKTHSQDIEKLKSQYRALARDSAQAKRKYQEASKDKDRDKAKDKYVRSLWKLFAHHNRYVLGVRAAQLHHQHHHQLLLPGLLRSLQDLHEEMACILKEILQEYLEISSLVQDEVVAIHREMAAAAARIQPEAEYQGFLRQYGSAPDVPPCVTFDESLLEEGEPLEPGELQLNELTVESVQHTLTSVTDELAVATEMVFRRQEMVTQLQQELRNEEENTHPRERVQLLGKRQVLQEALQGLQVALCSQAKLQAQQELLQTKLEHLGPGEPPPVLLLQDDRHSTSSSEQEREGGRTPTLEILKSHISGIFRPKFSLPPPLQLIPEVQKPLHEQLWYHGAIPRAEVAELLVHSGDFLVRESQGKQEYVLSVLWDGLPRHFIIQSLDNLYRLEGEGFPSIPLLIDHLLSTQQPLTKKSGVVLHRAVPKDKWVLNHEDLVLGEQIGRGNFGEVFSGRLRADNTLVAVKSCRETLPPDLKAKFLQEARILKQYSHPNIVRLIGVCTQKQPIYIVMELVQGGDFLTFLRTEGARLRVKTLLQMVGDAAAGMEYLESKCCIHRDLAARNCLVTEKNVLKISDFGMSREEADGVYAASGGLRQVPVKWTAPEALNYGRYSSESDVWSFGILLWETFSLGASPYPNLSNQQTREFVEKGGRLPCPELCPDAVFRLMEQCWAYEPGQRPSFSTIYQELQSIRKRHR
Sequence of Jak2 (O60674 whole entry, looked up): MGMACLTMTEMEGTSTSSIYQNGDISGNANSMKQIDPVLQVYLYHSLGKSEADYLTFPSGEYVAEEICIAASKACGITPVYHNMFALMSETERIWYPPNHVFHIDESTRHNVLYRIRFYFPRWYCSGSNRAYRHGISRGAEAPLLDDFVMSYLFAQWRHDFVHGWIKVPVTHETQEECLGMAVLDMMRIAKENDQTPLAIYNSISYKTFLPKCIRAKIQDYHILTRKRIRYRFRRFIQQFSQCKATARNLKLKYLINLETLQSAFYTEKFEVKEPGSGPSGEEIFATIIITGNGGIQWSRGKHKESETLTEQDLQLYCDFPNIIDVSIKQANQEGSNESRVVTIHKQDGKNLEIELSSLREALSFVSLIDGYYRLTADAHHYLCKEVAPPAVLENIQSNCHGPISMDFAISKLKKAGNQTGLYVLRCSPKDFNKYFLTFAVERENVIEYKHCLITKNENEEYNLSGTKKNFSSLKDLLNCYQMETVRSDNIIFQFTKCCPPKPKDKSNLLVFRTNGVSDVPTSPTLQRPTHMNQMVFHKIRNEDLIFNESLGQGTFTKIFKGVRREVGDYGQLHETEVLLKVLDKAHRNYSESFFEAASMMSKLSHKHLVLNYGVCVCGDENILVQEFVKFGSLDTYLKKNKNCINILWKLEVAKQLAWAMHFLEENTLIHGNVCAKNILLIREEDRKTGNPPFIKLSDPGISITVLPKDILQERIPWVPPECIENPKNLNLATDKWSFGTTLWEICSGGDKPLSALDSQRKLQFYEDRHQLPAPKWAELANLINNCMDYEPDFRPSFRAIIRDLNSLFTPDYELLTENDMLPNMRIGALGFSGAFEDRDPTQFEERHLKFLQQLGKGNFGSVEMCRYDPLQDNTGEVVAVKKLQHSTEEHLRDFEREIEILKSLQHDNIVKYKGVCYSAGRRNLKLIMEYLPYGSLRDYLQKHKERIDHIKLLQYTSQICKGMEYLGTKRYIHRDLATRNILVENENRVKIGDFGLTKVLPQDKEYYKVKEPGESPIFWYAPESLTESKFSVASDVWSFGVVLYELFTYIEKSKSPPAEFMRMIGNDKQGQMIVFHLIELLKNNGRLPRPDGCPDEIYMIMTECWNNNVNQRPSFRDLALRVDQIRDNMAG
Sequence of FGFR1 (P11362 whole entry, looked up): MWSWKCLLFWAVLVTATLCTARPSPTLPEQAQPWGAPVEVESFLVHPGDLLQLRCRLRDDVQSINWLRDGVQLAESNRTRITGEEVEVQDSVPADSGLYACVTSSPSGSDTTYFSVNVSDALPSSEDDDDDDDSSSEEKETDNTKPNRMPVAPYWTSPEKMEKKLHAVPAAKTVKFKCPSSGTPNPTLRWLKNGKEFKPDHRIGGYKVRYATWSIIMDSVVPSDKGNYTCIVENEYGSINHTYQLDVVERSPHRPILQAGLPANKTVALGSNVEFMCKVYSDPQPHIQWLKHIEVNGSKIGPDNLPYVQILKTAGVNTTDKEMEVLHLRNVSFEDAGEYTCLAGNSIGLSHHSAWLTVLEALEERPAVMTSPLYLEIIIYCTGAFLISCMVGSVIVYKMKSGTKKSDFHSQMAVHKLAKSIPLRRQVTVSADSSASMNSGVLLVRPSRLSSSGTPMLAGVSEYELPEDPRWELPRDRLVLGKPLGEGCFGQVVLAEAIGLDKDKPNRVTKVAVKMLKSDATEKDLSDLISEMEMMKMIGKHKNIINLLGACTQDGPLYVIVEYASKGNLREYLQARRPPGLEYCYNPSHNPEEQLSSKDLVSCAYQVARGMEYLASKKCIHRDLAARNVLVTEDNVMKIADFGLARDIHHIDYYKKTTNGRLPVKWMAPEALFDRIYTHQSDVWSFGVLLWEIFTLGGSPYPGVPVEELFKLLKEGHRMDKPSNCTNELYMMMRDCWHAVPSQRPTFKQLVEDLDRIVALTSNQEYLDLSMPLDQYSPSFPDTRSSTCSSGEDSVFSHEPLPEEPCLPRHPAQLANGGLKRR

Sequence | SH2 binding enrichment (Grb2 SH2) | SH2 binding enrichment (c-Src SH2) | SH2 binding enrichment (SHP2-C SH2) | phosphorylation enrichment (EPHB1) | phosphorylation enrichment (Hck) | phosphorylation enrichment (Jak2) | phosphorylation enrichment (FGFR3) | phosphorylation enrichment (Fer (mouse)) | phosphorylation enrichment (EPHB2) | phosphorylation enrichment (Fyn) | phosphorylation enrichment (Fes) | phosphorylation enrichment (c-Abl (mouse)) | phosphorylation enrichment (MERTK) | phosphorylation enrichment (c-Src) | phosphorylation enrichment (FGFR1) | phosphorylation enrichment (AncSZ)
KPPFSYNALIR [FOXG1_Y186_M191R] | 1.01 | 0.742 | 0.956 | 0.478 | 0.53 | 0.618 | 0.519 | 0.446 | 0.55 | 0.482 | 0.807 | 0.565 | 0.477 | 0.504 | 0.505 | 0.695
KQRSDYARELE [MYH3_Y1140] | 1.01 | 0.512 | 0.859 | 0.38 | 0.393 | 0.596 | 0.481 | 0.358 | 0.435 | 0.417 | 0.789 | 0.625 | 0.38 | 0.362 | 0.331 | 0.636
KQVEQYMSFHK [HCN1_Y417] | 0.782 | 0.524 | 0.583 | 0.528 | 3.62 | 0.687 | 0.54 | 0.413 | 0.555 | 1.49 | 0.754 | 0.691 | 0.384 | 1.45 | 0.49 | 0.833
KRIETYFSKNF [PLP1_Y50_L46R_YF] | 0.949 | 0.559 | 0.51 | 0.43 | 0.47 | 0.723 | 0.532 | 0.46 | 0.417 | 0.499 | 0.874 | 0.752 | 0.395 | 0.467 | 0.516 | 0.703
KRISCYEASYQ [PFKFB3_Y194] | 0.67 | 0.667 | 0.582 | 0.522 | 0.529 | 0.749 | 0.656 | 0.494 | 0.484 | 0.452 | 0.947 | 0.74 | 0.493 | 0.467 | 0.447 | 0.896
KRLDGYVLEGR [IGSF9_Y656] | 0.791 | 0.856 | 0.518 | 0.356 | 0.447 | 0.426 | 0.44 | 0.323 | 0.417 | 0.441 | 0.67 | 0.496 | 0.385 | 0.321 | 0.43 | 0.585
KSSDVYVSYDC [SORL1_Y136_Y141C] | 0.959 | 0.766 | 0.583 | 0.866 | 1.87 | 0.934 | 1.35 | 0.663 | 0.993 | 4.79 | 1.13 | 0.772 | 0.611 | 3.82 | 1.52 | 1.22
KTDKKYLMIKE [BAG3_Y451_E455K] | 0.897 | 0.499 | 0.836 | 0.426 | 0.368 | 0.636 | 0.526 | 0.373 | 0.439 | 0.368 | 0.877 | 0.616 | 0.408 | 0.392 | 0.423 | 0.64
KTDVRYRSLGG [DYSF_Y1858_H1857R] | 0.898 | 0.383 | 0.634 | 0.333 | 0.314 | 0.553 | 0.472 | 0.414 | 0.312 | 0.35 | 0.472 | 0.473 | 0.346 | 0.368 | 0.372 | 0.446
KTTGGYAGGLS [KRT8_Y419_S417G] | 0.853 | 0.416 | 0.575 | 0.34 | 0.454 | 0.701 | 0.422 | 0.419 | 0.473 | 0.413 | 0.592 | 0.649 | 0.523 | 0.583 | 0.454 | 0.506
KVDKEYEVRVR [GHR_Y226] | 1.05 | 0.589 | 1.06 | 0.459 | 0.488 | 0.587 | 0.473 | 0.396 | 0.547 | 0.407 | 0.864 | 0.579 | 0.361 | 0.41 | 0.52 | 0.711
KVPELYEIHKE [BCR_Y554] | 0.996 | 0.701 | 0.751 | 0.93 | 0.853 | 0.766 | 0.817 | 0.976 | 0.868 | 0.631 | 1.08 | 0.714 | 0.619 | 0.603 | 0.593 | 1.03
LARDMDDKEYY [MET_Y1230_Y1230D] | 0.742 | 0.759 | 0.716 | 0.828 | 0.723 | 1.37 | 1.19 | 0.643 | 1.13 | 0.691 | 1.64 | 1.2 | 0.489 | 0.531 | 0.867 | 1.87
LATINYPFEKG [NDUFS8_Y84_P79L] | 1.09 | 0.557 | 0.628 | 0.565 | 0.401 | 0.642 | 0.576 | 0.5 | 0.484 | 0.421 | 0.914 | 0.64 | 0.377 | 0.467 | 0.503 | 0.827
LDAFIYNAAVL [GRIN2A_Y730_D731N] | 0.927 | 0.5 | 0.761 | 1.3 | 4.05 | 0.874 | 1.62 | 1.95 | 1.57 | 4.57 | 2.08 | 0.972 | 0.704 | 2.32 | 2.36 | 1.72
LEDDMYRKTCT [XPA_Y257] | 1.04 | 0.524 | 0.738 | 1.15 | 0.984 | 1.56 | 1.67 | 1.37 | 1.03 | 1.78 | 2.56 | 1.17 | 0.848 | 0.624 | 1.24 | 2.07
